Values belong to the molecule of their own block, whether it stands above or below them. Where no end group is shown, it is not given here. [ ]: non-standard residue; d: D form. pY = N[C@@H](Cc1ccc(OP(=O)(O)O)cc1)C(=O)O
Experiments:
[1] = biological target: T1, recombinant human STAT3 SH2 domain (Homo sapiens, UniProt P40763); experiment: AlphaScreen SH2 binding assay, STAT3
T1 construct: Full-length cDNAs were obtained from a human cDNA library by PCR; Avi-tag (biotinylated in BirA-BL21) (N); made in house; host or cells: Escherichia coli BirA-BL21
Experimental: AlphaScreen assays were performed in a final reaction volume of 25 μL of the assay buffer, containing 10 mM HEPES-NaOH (pH 7.4), 50 mM NaCl, 1 mM EDTA (pH 8.0), 0.1% NP-40, and 10 ng/mL BSA in a 96-well microtiter plate at 25°C. The labeled Phospho-Tyr (pTyr) peptide probe was 5-carboxyfluorescein (FITC)-GpYLPQTV for STAT3, FITC-GpYDKPHVL for STAT1, and FITC-PSpYVNVQN for Grb2. A DMSO solution of BENDA was incubated with 50 nM of each SH2-containing protein for 15 min, 50 nM of the corresponding FITC-pTyr peptide was added, and the mixture was incubated for 90 min. Streptavidin-coated donor beads and anti-FITC acceptor beads were added and incubated for 90 min before the signals were measured with an Envision Xcite plate reader (PerkinElmer Life Sciences, Waltham, MA, USA).

[2] = biological target: T2, cellular STAT1 in MDA-MB-468 cells (Homo sapiens, UniProt P42224); experiment: Pull-down assay using Bio-BENDA, anti-STAT1 immunoprecipitation; assay type: cell-based; details: 50 μM Bio-BENDA, 4 h
T2 construct: endogenous in cells; host or cells: MDA-MB-468

[3] = biological target: T3, cellular STAT3 in MDA-MB-468 cells (Homo sapiens, UniProt P40763); experiment: Pull-down assay using Bio-BENDA, anti-STAT3 immunoprecipitation; assay type: cell-based; details: 50 μM Bio-BENDA, 4 h
T3 construct: endogenous in cells; host or cells: MDA-MB-468
Experimental: MDA-MB-468 cells were treated with biotinylated BENDA (Bio-BENDA) in the presence or absence of an excess amount of free drugs for 4 h and then lysed in PhosphoSafe™ Extraction Reagent (Merck, Darmstadt, Germany). Lysate (200 μL) was precleared with a mixture of Protein G Plus/Protein A Agarose Suspension (EMD Millipore, Billerica, MA, USA) for 1 h at 4°C and protein A and G agarose were removed by centrifugation at 13,000 rpm for 10 min. The lysate (200 μL) was immunoprecipitated with STAT3 antibody (1 μL) overnight at 4°C on a shaker and the immunocomplex was captured by the addition of a Protein G Plus/Protein A Agarose Suspension (30 μL) slurry for 1 h at 4°C. Samples were washed five times with lysis buffer and then boiled four times in SDS-PAGE sample buffer and run on an SDS-PAGE gel. The protein was transferred to a nitrocellulose membrane. The membranes were blocked in 5% skim milk in TBS/0.1% Tween 20. They were then incubated with streptavidin-HRP diluted at 1:2000 in 1.5% skim milk in TBS (pH7.4)/0.1% Tween 20 overnight at 4°C. Immunoblots were developed by using a chemiluminescent substrate.

[4] = tested on: MDA-MB-468 cells and MDA-MB-453 cells; parameters: method as in PMID 26010889; details: cited from earlier work
[5] = biological target: T4, mutant recombinant human STAT3, Cys687 to alanine (human, UniProt P40763 1-770, Cys687 to alanine, biotin (Avi-tag; expressed in BirA-BL21 cells induced with 50 μM biotin)); experiment: AlphaScreen or HTRF; 375 nM mutant recombinant STAT3 incubated with 100 μM BENDA in DMSO for 30 min, then the AlphaScreen SH2 binding assay with the phosphotyrosine peptide; details: both partners purified
T4 construct: human STAT3, full-length cDNA, single point mutation by inverse PCR, in modified pET-28a(+); Expression and purification are described for the wild type; also called Cys687 mutant; mutant STAT3 His-Avi-pET28a (+); source: E. coli BirA-BL21, purified (Ni Sepharose, dialysis); not shown: Avi-tag, N-terminal, kept

[6] = biological target: T5, mutant recombinant human STAT3, C712A (human, UniProt P40763 1-770, C712A, biotin (Avi-tag; expressed in BirA-BL21 cells induced with 50 μM biotin)); experiment: as above; details: both partners purified
T5 construct: human STAT3, full-length cDNA, single point mutation by inverse PCR, in modified pET-28a(+); Expression and purification are described for the wild type; also called Cys712 mutant; mutant STAT3 His-Avi-pET28a (+); source: E. coli BirA-BL21, purified (Ni Sepharose, dialysis); not shown: Avi-tag, N-terminal, kept

[7] = biological target: T6, mutant recombinant human STAT3, Cys468 to alanine (human, UniProt P40763 1-770, Cys468 to alanine, biotin (Avi-tag; expressed in BirA-BL21 cells induced with 50 μM biotin)); experiment: as above; details: both partners purified
T6 construct: human STAT3, full-length cDNA, single point mutation by inverse PCR, in modified pET-28a(+); Expression and purification are described for the wild type; also called Cys468 mutant; mutant STAT3 His-Avi-pET28a (+); source: E. coli BirA-BL21, purified (Ni Sepharose, dialysis); not shown: Avi-tag, N-terminal, kept

[8] = biological target: T7, mutant recombinant human STAT3, Cys542 to alanine (human, UniProt P40763 1-770, Cys542 to alanine, biotin (Avi-tag; expressed in BirA-BL21 cells induced with 50 μM biotin)); experiment: as above; details: both partners purified
T7 construct: human STAT3, full-length cDNA, single point mutation by inverse PCR, in modified pET-28a(+); Expression and purification are described for the wild type; also called Cys542 mutant; mutant STAT3 His-Avi-pET28a (+); source: E. coli BirA-BL21, purified (Ni Sepharose, dialysis); not shown: Avi-tag, N-terminal, kept

[9] = biological target: T8, mutant recombinant human STAT3, C550A (human, UniProt P40763 1-770, C550A, biotin (Avi-tag; expressed in BirA-BL21 cells induced with 50 μM biotin)); experiment: as above; details: both partners purified
T8 construct: human STAT3, full-length cDNA, single point mutation by inverse PCR, in modified pET-28a(+); Expression and purification are described for the wild type; also called Cys550 mutant; mutant STAT3 His-Avi-pET28a (+); source: E. coli BirA-BL21, purified (Ni Sepharose, dialysis); not shown: Avi-tag, N-terminal, kept

[10] = biological target: T9, recombinant human STAT3 (signal transducer and activator of transcription 3) (human, UniProt P40763 1-770, biotin (Avi-tag; expressed in BirA-BL21 cells induced with 50 μM biotin)); experiment: AlphaScreen or HTRF; 50 nM SH2-containing protein pre-incubated 15 min with BENDA in DMSO, then 50 nM FITC-pTyr peptide 90 min; streptavidin-coated donor beads and anti-FITC acceptor beads 90 min; 10 mM HEPES-NaOH pH 7.4, 50 mM NaCl, 1 mM EDTA, 0.1% NP-40, 10 ng/mL BSA, 25°C; details: both partners purified
T9 construct: human STAT3, full-length cDNA from a human cDNA library, cloned into modified pET-28a(+); also called rhSTAT3; wild-type rhSTAT3; source: E. coli BirA-BL21, purified (Ni Sepharose, dialysis); not shown: Avi-tag, N-terminal, kept
T9 sequence (P40763 whole entry): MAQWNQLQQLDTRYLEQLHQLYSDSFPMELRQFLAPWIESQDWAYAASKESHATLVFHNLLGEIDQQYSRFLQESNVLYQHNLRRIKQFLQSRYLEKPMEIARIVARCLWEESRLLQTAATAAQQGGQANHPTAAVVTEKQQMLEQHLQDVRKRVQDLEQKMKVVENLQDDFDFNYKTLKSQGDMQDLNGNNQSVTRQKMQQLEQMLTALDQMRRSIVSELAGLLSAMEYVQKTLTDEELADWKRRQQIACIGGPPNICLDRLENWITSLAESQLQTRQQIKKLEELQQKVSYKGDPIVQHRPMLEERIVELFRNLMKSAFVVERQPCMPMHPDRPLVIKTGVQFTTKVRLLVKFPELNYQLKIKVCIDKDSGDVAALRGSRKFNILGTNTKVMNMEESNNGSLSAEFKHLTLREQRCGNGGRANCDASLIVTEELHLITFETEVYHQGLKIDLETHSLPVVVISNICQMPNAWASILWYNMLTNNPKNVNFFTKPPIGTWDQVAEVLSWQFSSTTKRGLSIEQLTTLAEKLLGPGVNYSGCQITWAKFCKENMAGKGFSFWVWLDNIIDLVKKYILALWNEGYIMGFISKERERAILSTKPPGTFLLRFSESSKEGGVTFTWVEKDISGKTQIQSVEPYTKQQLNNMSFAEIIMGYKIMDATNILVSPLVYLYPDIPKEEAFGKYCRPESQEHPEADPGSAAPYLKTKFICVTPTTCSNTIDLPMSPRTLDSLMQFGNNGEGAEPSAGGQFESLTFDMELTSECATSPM

T8 sequence (P40763 whole entry C550A): as the sequence (P40763 whole entry) above, with C550A counted along it
T7 sequence (P40763 other isoform, or with tags, fused parts or gaps Cys542 to alanine | Cys542 to alanine | mutant): as the sequence (P40763 whole entry) above, with C542A counted along it
T6 sequence (P40763 other isoform, or with tags, fused parts or gaps Cys468 to alanine | Cys468 to alanine | mutant): as the sequence (P40763 whole entry) above, with C468A counted along it
T5 sequence (P40763 whole entry C712A): as the sequence (P40763 whole entry) above, with C712A counted along it
T1 sequence (P40763 whole entry, the tested form may be a part): as the sequence (P40763 whole entry) above
T3 sequence (P40763 2-770 limits assumed): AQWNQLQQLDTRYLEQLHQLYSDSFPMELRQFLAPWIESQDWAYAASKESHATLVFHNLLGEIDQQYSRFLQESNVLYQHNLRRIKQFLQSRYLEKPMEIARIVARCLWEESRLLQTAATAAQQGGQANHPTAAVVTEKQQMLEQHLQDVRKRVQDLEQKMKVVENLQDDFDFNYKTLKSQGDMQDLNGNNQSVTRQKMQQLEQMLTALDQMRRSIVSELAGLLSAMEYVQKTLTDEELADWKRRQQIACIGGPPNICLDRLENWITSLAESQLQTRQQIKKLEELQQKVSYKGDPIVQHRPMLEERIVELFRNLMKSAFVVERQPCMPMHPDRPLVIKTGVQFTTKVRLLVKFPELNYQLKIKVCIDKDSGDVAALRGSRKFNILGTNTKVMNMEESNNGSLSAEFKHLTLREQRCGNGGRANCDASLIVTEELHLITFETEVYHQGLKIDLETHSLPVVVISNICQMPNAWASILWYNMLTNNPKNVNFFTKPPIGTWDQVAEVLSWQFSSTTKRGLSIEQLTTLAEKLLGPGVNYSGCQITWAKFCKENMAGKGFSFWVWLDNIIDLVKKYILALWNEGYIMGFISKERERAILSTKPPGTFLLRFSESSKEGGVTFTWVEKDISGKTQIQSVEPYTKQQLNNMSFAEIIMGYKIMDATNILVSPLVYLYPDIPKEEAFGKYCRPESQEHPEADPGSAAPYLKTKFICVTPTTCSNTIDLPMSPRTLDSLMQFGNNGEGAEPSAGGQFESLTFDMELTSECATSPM
T4 sequence (P40763 other isoform, or with tags, fused parts or gaps Cys687 to alanine | Cys687 to alanine | mutant): as the sequence (P40763 whole entry) above, with C687A counted along it
T2 sequence (P42224 whole entry): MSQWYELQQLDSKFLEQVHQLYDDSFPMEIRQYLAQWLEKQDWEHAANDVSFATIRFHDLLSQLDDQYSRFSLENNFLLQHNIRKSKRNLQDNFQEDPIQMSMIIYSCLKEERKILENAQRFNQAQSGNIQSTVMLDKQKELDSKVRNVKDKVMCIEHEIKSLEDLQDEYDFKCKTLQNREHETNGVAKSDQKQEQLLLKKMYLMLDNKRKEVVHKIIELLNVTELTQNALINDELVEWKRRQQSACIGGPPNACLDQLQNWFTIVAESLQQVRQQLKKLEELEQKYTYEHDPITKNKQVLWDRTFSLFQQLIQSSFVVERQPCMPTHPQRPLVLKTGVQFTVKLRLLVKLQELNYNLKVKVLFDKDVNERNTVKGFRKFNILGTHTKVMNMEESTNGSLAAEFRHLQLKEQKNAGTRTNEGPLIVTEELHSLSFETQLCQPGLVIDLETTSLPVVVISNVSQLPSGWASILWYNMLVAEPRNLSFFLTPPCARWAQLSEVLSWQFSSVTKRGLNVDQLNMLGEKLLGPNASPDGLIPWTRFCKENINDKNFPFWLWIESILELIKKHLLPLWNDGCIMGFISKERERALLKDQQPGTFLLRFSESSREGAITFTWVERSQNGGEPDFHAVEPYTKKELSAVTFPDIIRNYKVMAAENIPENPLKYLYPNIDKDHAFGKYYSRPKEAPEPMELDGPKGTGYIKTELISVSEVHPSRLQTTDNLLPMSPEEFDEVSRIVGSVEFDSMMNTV

Molecule: CCOC(=O)CCCc1nc2cc(N(CCCl)CCCl)ccc2n1C [BM1EE, BENDA ethyl ester]
- IC50 [1]: 6.1 µM

Molecule: Cn1c(CCCC(=O)OCCOCCOCCOCCNC(=O)CCC[C@@H]2SC[C@@H]3NC(=O)N[C@@H]32)nc2cc(N(CCCl)CCCl)ccc21 [Bio-BENDA, 13-Oxo-16-[(3aS,4S,6aR)-2-oxohexahydro-1H-thieno[3,4-d]imidazol-4-yl]-3,6,9-trioxa-12-azahexadecyl 4-{5-[bis(2-chloroethyl)amino]-1-methyl-1H-benzo[d]imidazol-2-yl}butanoate]
- Binding to cellular STAT1 (band by streptavidin-HRP after anti-STAT1 IP) [2]: no band
- Binding to cellular STAT3 (band by streptavidin-HRP after anti-STAT3 IP) [3]: the STAT3 band was observed

Molecule: C=C1C(=O)[C@]23C[C@H]1CC[C@H]2[C@@]12CO[C@]3(O)[C@@H](O)[C@@H]1C(C)(C)C=CC2=O [Eriocalyxin B]
- Growth inhibition of MDA-MB-468 versus MDA-MB-453 cells [4]: inhibit the growth of MDA-MB-468 cells more than that of the MDA-MB-453 cells

Molecule: O=[N+]([O-])c1ccc2c(c1)S(=O)(=O)C=C2 [Stattic]
- Growth inhibition of MDA-MB-468 versus MDA-MB-453 cells [4]: inhibit the growth of MDA-MB-468 cells more than that of the MDA-MB-453 cells

- binding result [5]: binds
- binding result [6]: binds
- binding result [7]: binds
- binding result [8]: binds
- binding result [9]: binds
- binding result [10]: binds
B1: 5-carboxyfluorescein (FITC)-GpYLPQTV, labeled Phospho-Tyr peptide probe for STAT3 (peptide)
peptide: G[pY]LPQTV
modifications: not fully specified (N-terminus)
notes: the leading G is not the natural residue there; also called phosphotyrosine peptide; pTyr peptide; source: synthetic peptide (NippiBiomatrix Laboratory)

Reference: paper PMC5268383, “Inhibition of STAT3 by Anticancer Drug Bendamustine” (PLoS ONE, 2017)
